What was measured:
[1] = target: T1, soluble TL1A-SH6 protein (his tagged) (Homo sapiens (Human), UniProt O95150 57-251, limits assumed); assay: FACS competition: TL1A SH6 at 200 ng/ml pre-incubated with dilutions of 10A4.F7, then added to hDR3 CHO cells, PE anti 6xHis detection
T1 construct: also called TL1A SH6 antigen; not shown: His tag (detected with anti 6xHis antibody)
T1 sequence: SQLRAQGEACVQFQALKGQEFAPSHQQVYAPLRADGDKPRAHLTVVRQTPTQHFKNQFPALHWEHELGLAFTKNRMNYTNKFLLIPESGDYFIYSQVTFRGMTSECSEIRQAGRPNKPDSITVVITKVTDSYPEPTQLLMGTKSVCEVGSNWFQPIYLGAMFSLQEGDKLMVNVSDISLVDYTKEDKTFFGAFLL
Protocol: (§1) TL1A SH6 at 200 ng/ml (50 ul) was incubated with dilutions of 10A4.F7 (50 ul) antibody or control IgG1 antibody (all reagents in FACS buffer). The mixture was incubated for 30 minutes and then added to 10⁵ hDR3 CHO cells in 100 ul of FACS buffer and incubated for 1 hr. Cells were washed twice in FACS buffer and TL1A binding to DR3 CHO cells was detected by staining cells with PE anti 6×His antibody (R&D systems) and evaluated by FACS.
(§2) Identification of anti-TL1A antibodies that block TL1A binding to DR3 were also done by FACS by using soluble TL1A-SH6 protein (his tagged) binding to hDR3 expressed on CHO cells (DR3 CHO). Anti-TL1A or control antibodies were incubated with TL1A SH6 antigen at 0.1-0.5 ug/ml for 30 minutes in FACS buffer and then hDR3 CHO cells were added to the antibody TL1A mix and incubated for 30 minutes. Cells were washed and TL1A binding to hDR3 CHO cells was detected with PE anti-His antibody followed by FACS. Blocking antibodies prevent TL1A SH6 from binding to hDR3 CHO cells (FIG. 2).

Hu-TL1A-His = target: T2, Hu-TL1A-His (Homo sapiens, UniProt O95150); assay: SPR (Biacore), 10A4.F7 captured on a protein G surface, Hu-TL1A-His as analyte at 250, 200, 150, 100 and 50n
T2 construct: recombinant, His-tagged; also called Hu-TL1A-His antigen (Lot#50182AS151)
T2 sequence (ligand chain, looked up): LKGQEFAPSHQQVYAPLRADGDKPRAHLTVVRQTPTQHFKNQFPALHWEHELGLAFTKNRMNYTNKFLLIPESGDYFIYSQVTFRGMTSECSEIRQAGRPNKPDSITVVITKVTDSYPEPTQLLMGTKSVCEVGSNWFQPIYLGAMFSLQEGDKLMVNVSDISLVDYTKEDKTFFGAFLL
Protocol: Protein G chip (CM5) was made by coating it […] using acetate buffer (pH2.9). 10A4.F7 mab (7.5 ug/mL, 12 uL) was captured at 10 uL/min flow rate on Protein G surface. Hu-TL1A-His antigen (Lot#50182AS151) at multiple concentrations (250, 200, 150, 100 & 50n) were flowed over captured mab for 5 min at 25 ul/min and allowed to dissociate for 7.5 min. Protein G surface was regenerated with 10 uL of 50 mM NaOH and 5 uL of 25 mM HCL at 100 uL/min flow rate. Data was analyzed by using Biaevaluation 3.1. (FIG. 3)

[2] = target: T1, soluble TL1A-SH6 protein (his tagged); assay: FACS, inhibition of the binding of TL1A SH6 (200 ng/ml) to hDR3 CHO cells, detection with PE anti-6xHis; the box prints no unit, the axis is Log nM
Protocol: as §1, §2

[3] = target: T3, TL1A expressed on transfected CHO cells (Homo sapiens (Human), UniProt O95150 1-251); assay: FACS titration on TL1A CHO cells, detection with PE anti-human IgG (Fc specific); the box prints no unit, the axis is IgG (nM)
T3 construct: also called TL1A CHO cells; TL1A expressing CHOs cells
T3 sequence: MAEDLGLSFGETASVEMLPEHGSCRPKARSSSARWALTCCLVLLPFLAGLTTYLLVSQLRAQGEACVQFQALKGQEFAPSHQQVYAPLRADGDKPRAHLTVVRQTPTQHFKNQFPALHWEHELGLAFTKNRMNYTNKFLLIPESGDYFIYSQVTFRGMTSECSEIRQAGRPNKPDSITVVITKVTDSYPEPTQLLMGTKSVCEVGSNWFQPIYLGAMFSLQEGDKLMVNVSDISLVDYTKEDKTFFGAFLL
Protocol: (§3) Dilutions of TL1A antibody were incubated with 10⁵ TL1A CHO cells in 100 ul FACS buffer for 1 hr. Cells were washed two times with FACS buffer and antibody binding was detected by staining with PE anti human […] antibody and evaluated by FACS.
(§4) FACS assays were used to verify that antibodies of the disclosure are binding to native TL1A expressed on cells. Briefly, dilutions of antibody in PBS 1% BSA plus 0.5% sodium azide (FACS buffer) were incubated with transfected CHO cells expressing TL1A (10⁵ cells) for 30-60 minutes at 4 C. Cells were washed twice by centrifugation, aspiration of supernatant, and addition of fresh FACS buffer. Antibody binding to TL1A on cells was detected by incubating the cells in PE (Phycoerythrin) labeled goat anti-human IgG (Fc specific) antibody for 30 min at 4C, washing the cells 2× as above, and analyzing by FACS (FIG. 1).

[4] = target: T3, TL1A expressed on transfected CHO cells; assay: flow cytometry, titration of the antibody on TL1A CHO cells, PE anti-human IgG (Fc specific) detection
Protocol: as §3, §4

IC50 [1]: 0.524 nM | Kd (Hu-TL1A-His): 0.38 nM | koff (Hu-TL1A-His): 2.9e-05 s⁻¹ | kon (Hu-TL1A-His): 75000 M⁻¹ s⁻¹ | IC50 [2]: 0.525 nM | EC50 [3]: 0.407 nM | EC50 [4]: 0.4 nM
B1: monoclonal antibody 10A4.F7 (antibody, V domains shown)
VH: QLQLQESGPGLVKPSETLSLTCTVSGGSISSRSYYWGWIRQPPGKGLEWIGSIYYNGRTYYNPSLKSRVTISVDTSKNQFSLKLSSVTAADTAVYYCAREDYGDYGAFDIWGQGTMVTVSS
VL: AIQLTQSPSSLSASVGDRVTITCRASQGISSALAWYQQKPGKAPKLLIYDASSLESGVPSRFSGSGSGTDFTLTISSLQPEDFATYYCQQFNSYPLTFGGGTKVEIK
notes: Hybridoma subclone of parental clone 10A4 (KM mouse, human IgG kappa); also called TL1A 2596.10A4.F7

Source: patent US20190135928A1 (Bristol-Myers Squibb, published 2019)
